Measured values reported in paper PMC11157483.

Biological target: Aplysia californica acetylcholine binding protein (Aplysia californica)
Assay: cross-linking

stoichiometry N: 5
Substance: Aplysia californica acetylcholine binding protein (natural protein)
